From paper PMC12711026 (PLOS Pathogens, 2025)
Where no end group is shown, it is not given here. The star is where a group is joined. Biotin = O=C1N[C@H]2[C@H](CS[C@H]2CCCCC(=O)*)N1

Biological target: T1, carrier-free recombinant human Netrin-1-His (human, UniProt O95631 25-604)
T1 construct: also called rNetrin-1-His; rNetrin-1
Experiment: pull-down; Pierce Pull-Down Biotinylated Protein:Protein Interaction Kit; 150 μL of 0.5 mg/mL biotinylated peptide on streptavidin gel; 100 μL of 1 ng/μL recombinant LHBs with 0, 1, 2 or 4 ng/μL rNetrin-1-His; western blot
Settings: both partners purified

Biotin-NSKMYLKTRA (also called C-terminal HBS of LIPG) [biotinylated LIPG-CTD HBS peptide (amino acids 331–340)]: binds.
